For the data set, the target named is T1, OxyR (Pseudomonas aeruginosa (PAO1?)) (UniProt Q9HTL4).
T1 sequence: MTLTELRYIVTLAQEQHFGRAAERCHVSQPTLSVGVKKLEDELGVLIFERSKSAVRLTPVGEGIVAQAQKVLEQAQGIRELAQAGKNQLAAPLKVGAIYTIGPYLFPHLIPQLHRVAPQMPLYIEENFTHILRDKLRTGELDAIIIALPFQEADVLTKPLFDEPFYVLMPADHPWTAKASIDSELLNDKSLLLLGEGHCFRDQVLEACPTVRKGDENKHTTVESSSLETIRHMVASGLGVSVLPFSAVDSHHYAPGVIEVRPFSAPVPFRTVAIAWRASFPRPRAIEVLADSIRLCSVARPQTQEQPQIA
The data set can be described thus: DNase I footprinting. The following applies: Footprint: 20 mM Tris-HCl pH 7.0, 50 mM KCl, 1 mM EDTA, 5% glycerol, 50 ug/ml BSA, 5 ug/ml calf thymus DNA, 0.5 ug/ml poly(dI-dC), 25 C, 15 min; EMSA: Roche ….

Take “CAGGCGCTCGGCGGCGCGGGTGAAACTGCCTTCGCGGGCGACGGCGTCGAAGGCGCGGAGCTGGAAGAGATTCATGGTATCGGCCTGGCTTATGGCTGGCATCGGAACAAACAATTTGAACGATAGTAGCGCGGCGCTCACCTTATGTCTCCAGGCTTCCCTGGAACGCCGGCGCGGAACGACCGCCCGGACCGCGAAG (double strand) [phnW promoter 199-bp fragment (footprint)]”: the binding entry is given as “binds”.
